Assay results from patent publication US5484732, “Transcription factor for regulation of the development of skin and hair” (The Regents of the University of California, dated 1996).

Biological target: the molecule itself
Assay: DSS crosslinking in solution of 35S-labelled protein translated in vitro, SDS/polyacrylamide gel (self-association)
Description: With respect to (1), the effect of the Skn-1i inhibitory region on dimerization in solution was assayed by the ability of a homobifunctional crosslinking agent [disuccnidyl suberate (DSS)] to crosslink in vitro translated proteins.
Specifically, approximately 100,000 cpm of ^35S-labeled Skn-1i, Δ32Skn-1i, 1–99 (N/T) Skn1-i and Δ60 (N/T) Skn1-i proteins were added separately to […] of binding buffer (10 mM HEPES [pH7.8], 50 mM K CI, 5% glycerol). After 15 minutes at room temperature, […] of DSS (suspended in 5 mg/ml DMSO) or DMSO alone was added to each of the reactions. After 5 minutes, the reaction was stopped by adding SDS sample buffer to each which was then boiled prior to analyses on SDS/polyacrylamide gels. To quantitate crosslinking efficiency, monomers ("M" on FIG. 12) and dimers ("D" on FIG. 12) were excised from the gel and counted by scintillation counting.

B1: Δ32 Skn-1i (other)
chain: LQPNLLSFPQQQSTLLLPQTGPGLTSQAVGRPGLSGSSLEPHLEASQHLPGPKHLPGPGGNDEPTDLEELEKFAKTFKQRRIKLGFTQGDVGLAMGKLYGNDFSQTTISRFEALNLSFKNMCKLKPLLEKWLNDAESSPADPSASTPSSYPTLSEVFGRKRKKRTSIETNIRLTLEKRFQDNPKPSSEEISMIAEQLSMEKEVVRVWFCNRRQKEKRINCPVATPVKPPIYNSRLVSPSGSLGSLSVPPVHSTMPGTVTSSCSPGNNSRPSSPGSGLHASSPTASQNNSKAAMNPSSAAFNSSGSWYRWNHPAYLH
  binding result: no binding
